In patent US20020173640A1, “ADAM polynucleotides, polypeptides, and antibodies” (Human Genome Sciences, Inc., priority 1999, published 2002):
Where two headings read alike, the source gives them in different places.

How the values were obtained:
HIV = details: greater activity than its predecessor delavirdine; cited from earlier work
[1] = tested on: viruses containing the K103N mutation; details: cited from earlier work
hADAM-19 = target: T1, hADAM-19 (Homo sapiens, UniProt Q9H013); test: Inhibition of α2-M cleavage by hADAM-19 (SDS-PAGE, silver staining); format: biochemical
T1 construct: made in house
T1 sequence (Q9H013 26-701 isoform Q9H013-2): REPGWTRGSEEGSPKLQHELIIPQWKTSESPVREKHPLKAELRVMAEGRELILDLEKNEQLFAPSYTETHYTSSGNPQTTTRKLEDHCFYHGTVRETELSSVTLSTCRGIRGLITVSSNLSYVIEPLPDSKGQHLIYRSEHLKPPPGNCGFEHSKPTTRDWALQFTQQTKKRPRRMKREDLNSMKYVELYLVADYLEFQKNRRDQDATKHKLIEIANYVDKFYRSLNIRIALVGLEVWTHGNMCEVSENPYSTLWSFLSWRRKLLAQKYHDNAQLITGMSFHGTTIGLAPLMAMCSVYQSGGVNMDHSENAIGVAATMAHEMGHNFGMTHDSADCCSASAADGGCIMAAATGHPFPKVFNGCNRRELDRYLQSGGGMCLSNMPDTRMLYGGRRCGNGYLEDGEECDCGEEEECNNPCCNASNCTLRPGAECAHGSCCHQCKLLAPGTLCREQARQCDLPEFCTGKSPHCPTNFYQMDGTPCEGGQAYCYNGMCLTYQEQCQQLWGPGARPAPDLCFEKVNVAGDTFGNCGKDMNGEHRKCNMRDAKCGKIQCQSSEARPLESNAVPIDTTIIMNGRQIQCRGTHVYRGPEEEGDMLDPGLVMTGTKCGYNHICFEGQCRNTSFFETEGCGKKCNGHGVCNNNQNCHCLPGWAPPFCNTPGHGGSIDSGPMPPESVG
Experimental: 20 mM EDTA, 20 rmiM EGTA, 10 mM HgCl2, 1 miM TIMP-1,-2 (TIMP: hADAM-19 molar ratio was 100:1) and three commercial (CALBIOCHEM) small molecule human MMP inhibitors were used to inhibit α2-M cleavage by hADAM-19. […] Briefly, different concentrations of those inhibitors were mixed with 7.5 μl of hADAM-19 (50 μg/ml) in 22.9 μl of 1× HEPES buffer (50 mM HEPES, pH 7.5, 0.2 M NaCl, 10 mM CaCl2, 25 μM ZnCl, and 0.05%Brij-35) and incubated at room temperature (24° C.) for 2-hr, then 7.1 μl of substrate α2-M (0.2 unit/ml) were added and incubated at 37° C. for 20-hr. The reactions were stopped by adding 4× sample bufer and boiled immediately for 5 minutes. After SDS-PAGE, the protein bands were visualized by silver staining.

[2] = target: T2, Bovine plasma alpha-2-macroglobulin (UniProt Q7SIH1)
T2 sequence: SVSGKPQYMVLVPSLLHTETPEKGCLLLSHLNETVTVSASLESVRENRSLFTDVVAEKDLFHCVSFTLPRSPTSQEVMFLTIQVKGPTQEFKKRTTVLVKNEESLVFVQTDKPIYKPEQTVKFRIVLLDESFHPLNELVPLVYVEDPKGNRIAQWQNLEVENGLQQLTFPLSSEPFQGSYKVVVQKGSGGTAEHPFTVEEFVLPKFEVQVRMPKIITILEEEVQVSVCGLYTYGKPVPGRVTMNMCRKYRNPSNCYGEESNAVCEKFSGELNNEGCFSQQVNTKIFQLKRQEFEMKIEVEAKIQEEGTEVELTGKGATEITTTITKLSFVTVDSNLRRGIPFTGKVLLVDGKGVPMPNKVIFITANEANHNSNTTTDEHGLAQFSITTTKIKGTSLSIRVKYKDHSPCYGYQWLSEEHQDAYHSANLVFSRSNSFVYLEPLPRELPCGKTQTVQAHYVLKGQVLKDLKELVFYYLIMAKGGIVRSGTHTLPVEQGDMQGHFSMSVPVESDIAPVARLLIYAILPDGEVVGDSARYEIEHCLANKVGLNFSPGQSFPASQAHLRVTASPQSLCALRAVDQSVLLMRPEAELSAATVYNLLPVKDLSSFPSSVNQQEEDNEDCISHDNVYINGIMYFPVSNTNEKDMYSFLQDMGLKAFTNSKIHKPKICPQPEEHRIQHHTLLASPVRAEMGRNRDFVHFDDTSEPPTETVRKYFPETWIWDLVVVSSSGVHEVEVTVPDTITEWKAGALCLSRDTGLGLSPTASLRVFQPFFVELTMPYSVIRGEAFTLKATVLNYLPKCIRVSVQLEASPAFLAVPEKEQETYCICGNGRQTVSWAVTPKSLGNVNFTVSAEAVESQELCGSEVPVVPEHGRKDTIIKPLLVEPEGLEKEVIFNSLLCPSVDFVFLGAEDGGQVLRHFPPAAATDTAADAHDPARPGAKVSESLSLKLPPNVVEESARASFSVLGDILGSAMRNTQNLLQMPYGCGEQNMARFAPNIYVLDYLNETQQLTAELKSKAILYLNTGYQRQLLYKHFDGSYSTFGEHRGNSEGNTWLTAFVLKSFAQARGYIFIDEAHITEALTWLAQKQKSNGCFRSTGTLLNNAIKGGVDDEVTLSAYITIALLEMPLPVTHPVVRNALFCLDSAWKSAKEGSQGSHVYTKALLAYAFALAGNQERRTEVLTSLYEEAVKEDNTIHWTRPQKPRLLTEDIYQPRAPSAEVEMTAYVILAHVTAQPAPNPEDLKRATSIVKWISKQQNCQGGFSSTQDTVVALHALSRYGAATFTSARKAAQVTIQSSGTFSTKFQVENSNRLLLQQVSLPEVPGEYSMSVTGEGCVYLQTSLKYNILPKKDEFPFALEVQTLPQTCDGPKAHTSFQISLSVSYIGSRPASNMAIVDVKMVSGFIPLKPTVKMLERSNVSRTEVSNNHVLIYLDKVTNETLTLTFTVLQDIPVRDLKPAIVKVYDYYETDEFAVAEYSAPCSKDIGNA

[3] = target: T3, Bovine plasma alpha-2-macroglobulin, Q7SIH1
T3 chain: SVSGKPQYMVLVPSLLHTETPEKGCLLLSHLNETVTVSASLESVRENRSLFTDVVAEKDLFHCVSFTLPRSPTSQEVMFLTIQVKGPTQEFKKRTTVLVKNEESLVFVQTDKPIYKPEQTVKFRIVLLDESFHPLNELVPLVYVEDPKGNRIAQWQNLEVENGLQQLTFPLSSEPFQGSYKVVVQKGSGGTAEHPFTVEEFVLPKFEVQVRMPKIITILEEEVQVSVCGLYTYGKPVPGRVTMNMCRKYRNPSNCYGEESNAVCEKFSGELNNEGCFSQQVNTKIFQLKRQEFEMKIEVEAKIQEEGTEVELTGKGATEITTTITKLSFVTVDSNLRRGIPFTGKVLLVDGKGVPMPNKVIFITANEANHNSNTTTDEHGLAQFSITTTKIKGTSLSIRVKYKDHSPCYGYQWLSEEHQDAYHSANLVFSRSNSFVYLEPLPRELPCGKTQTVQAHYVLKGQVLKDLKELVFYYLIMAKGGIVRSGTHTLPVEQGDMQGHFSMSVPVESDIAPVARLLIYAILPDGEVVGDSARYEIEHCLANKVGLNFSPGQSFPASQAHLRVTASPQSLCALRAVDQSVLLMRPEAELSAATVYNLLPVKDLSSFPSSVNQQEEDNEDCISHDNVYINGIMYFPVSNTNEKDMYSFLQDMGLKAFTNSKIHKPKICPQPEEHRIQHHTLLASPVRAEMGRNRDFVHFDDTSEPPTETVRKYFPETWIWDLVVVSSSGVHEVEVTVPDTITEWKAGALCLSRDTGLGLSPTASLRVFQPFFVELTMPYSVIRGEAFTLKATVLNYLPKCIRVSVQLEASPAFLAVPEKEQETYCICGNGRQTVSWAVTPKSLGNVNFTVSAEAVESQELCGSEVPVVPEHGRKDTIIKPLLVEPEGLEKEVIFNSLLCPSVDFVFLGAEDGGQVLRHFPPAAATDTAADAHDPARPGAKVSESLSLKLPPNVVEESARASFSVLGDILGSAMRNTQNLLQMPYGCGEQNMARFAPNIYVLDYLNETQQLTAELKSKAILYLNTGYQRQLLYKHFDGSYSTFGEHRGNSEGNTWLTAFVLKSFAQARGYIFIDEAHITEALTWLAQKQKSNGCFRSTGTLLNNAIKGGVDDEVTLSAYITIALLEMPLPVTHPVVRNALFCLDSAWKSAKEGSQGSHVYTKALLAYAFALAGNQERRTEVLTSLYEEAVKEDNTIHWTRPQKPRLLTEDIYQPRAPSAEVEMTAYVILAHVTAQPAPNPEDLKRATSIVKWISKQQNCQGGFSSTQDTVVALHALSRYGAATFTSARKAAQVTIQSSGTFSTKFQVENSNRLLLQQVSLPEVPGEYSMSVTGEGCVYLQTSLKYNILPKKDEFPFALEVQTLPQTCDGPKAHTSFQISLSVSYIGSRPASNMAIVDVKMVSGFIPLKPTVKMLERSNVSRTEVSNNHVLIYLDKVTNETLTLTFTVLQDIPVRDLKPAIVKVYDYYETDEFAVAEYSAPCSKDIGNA

[4] = target: Mca fluorogenic peptide substrate M-1985
[5] = target: Mca fluorogenic peptide substrate M-2105
[6] = target: Mca fluorogenic peptide substrate M-2110
[7] = target: Mca fluorogenic peptide substrate M-2225
[8] = target: Mca fluorogenic peptide substrate M-2255
[9] = target: rat tail tendon type I gelatin

## C[C@H](Sc1nc(N)cc(Cl)n1)c1cc2ccoc2cn1 [PNU-142721]
HIV
  activity relative to delavirdine: 20- to 50 fold
[1]
  activity against K103N mutants: active against K103N mutants

## CC(C)c1nc(COC(N)=O)n(Cc2ccncc2)c1Sc1cc(Cl)cc(Cl)c1 [CAPRAVIRINE]
[1]
  activity against K103N mutants: activity against viruses containing the K103N mutation

## O=C(O)CN(CCN(CC(=O)O)CC(=O)O)CC(=O)O [EDTA]
hADAM-19
  blockage of hADAM-19 digestion of α2-M: completely blocked
  blockage of hADAM-19 proteolytic activity against α2-M: blocked completely

## TIMP-1: tissue inhibitor of metalloproteinases
hADAM-19; TIMP:hADAM-19 molar ratio of 100:1
  blockage of hADAM-19 digestion of α2-M: Neither TIMP-1 or TIMP-2 at TIMP:hADAM-1 9 molar ratio of 100:1 were able to block
hADAM-19; summary statement, concentration not given
  blockage of hADAM-19 proteolytic activity against α2-M: not blocked

## Trypsin
[2]
  cleavage of α2-M (SDS-PAGE, silver staining): Trypsin was used as a positive proteinase control to cleave α2-M and it generated a 72 kDa major band and a 35 kDa minor band

## COc1ccc(S(=O)(=O)N(CC(=O)NO)CC(C)C)cc1 [MMP-3 inhibitor II, N-Isobutyl-N-(4-methoxyphenylsulfonyl)-glycylhydroxamic acid]
hADAM-19; 100 µM inhibitor
  blockage of hADAM-19 digestion of α2-M: partially blocked
hADAM-19; 1 mM inhibitor
  blockage of hADAM-19 digestion of α2-M: partially blocked

B1: Flag-tagged hADAM-19 protein (residues 26-701 of SEQ ID NO: 9) (protein)
chain: REPGWTRGSEEGSPKLQHELIIPQWKTSESPVREKHPLKAELRVMAEGRELILDLEKNEQLFAPSYTETHYTSSGNPQTTTRKLEDHCFYHGTVRETELSSVTLSTCRGIRGLITVSSNLSYVIEPLPDSKGQHLIYRSEHLKPPPGNCGFEHSKPTTRDWALQFTQQTKKRPRRMKREDLNSMKYVELYLVADYLEFQKNRRDQDATKHKLIEIANYVDKFYRSLNIRIALVGLEVWTHGNMCEVSENPYSTLWSFLSWRRKLLAQKYHDNAQLITGMSFHGTTIGLAPLMAMCSVYQSGGVNMDHSENAIGVAATMAHEMGHNFGMTHDSADCCSASAADGGCIMAAATGHPFPKVFNGCNRRELDRYLQSGGGMCLSNMPDTRMLYGGRRCGNGYLEDGEECDCGEEEECNNPCCNASNCTLRPGAECAHGSCCHQCKLLAPGTLCREQARQCDLPEFCTGKSPHCPTNFYQMDGTPCEGGQAYCYNGMCLTYQEQCQQLWGPGARPAPDLCFEKVNVAGDTFGNCGKDMNGEHRKCNMRDAKCGKIQCQSSEARPLESNAVPIDTTIIMNGRQIQCRGTHVYRGPEEEGDMLDPGLVMTGTKCGYNHICFEGQCRNTSFFETEGCGKKCNGHGVCNNNQNCHCLPGWAPPFCNTPGHGGSIDSGPMPPESVG
[3]
  cleavage of α2-M (SDS-PAGE, silver staining): Human hADAM-19 cleaved α2-M to yield new bands of 105 kDa and a 72 kDa
  proteolysis of alpha-2 macroglobulin: a polypeptide corresponding to this gene displayed metal-dependant proteolysis of alpha-2 macroglobulin
[4]
  fluorogenic peptide substrate cleavage: Neither were the 5 different synthetic fluorogenic peptide substrates listed in the Materials and Methods
[5]
  fluorogenic peptide substrate cleavage: Neither were the 5 different synthetic fluorogenic peptide substrates listed in the Materials and Methods
[6]
  fluorogenic peptide substrate cleavage: Neither were the 5 different synthetic fluorogenic peptide substrates listed in the Materials and Methods
[7]
  fluorogenic peptide substrate cleavage: Neither were the 5 different synthetic fluorogenic peptide substrates listed in the Materials and Methods
[8]
  fluorogenic peptide substrate cleavage: Neither were the 5 different synthetic fluorogenic peptide substrates listed in the Materials and Methods
Bovine casein
  substrate digestion: rat tail tendon type I gelatin and bovine casein, were not dissolved by hADAM-19
[9]
  substrate digestion: rat tail tendon type I gelatin and bovine casein, were not dissolved by hADAM-19
